Test results from paper PMC10663500, “High-throughput analysis system of interaction kinetics for data-driven antibody design” (Scientific Reports, 2023).

B1: toripalimab Fab H.Y60A (Fab, V domains shown)
VH: QGQLVQSGAEVKKPGASVKVSCKASGYTFTDYEMHWVRQAPIHGLEWIGVIESETGGTAANQKFKGRVTITADKSTSTAYMELSSLRSEDTAVYYCAREGITTVATTYYWYFDVWGQGTTVTVSS
VL: DVVMTQSPLSLPVTLGQPASISCRSSQSIVHSNGNTYLEWYLQKPGQSPQLLIYKVSNRFSGVPDRFSGSGSGTDFTLKISRVEAEDVGVYYCFQGSHVPLTFGQGTKLEIK
notes: heavy chain of Sm3 with this change; numbers count from the chain's first residue; as the light chain of Sm3; source: Brevibacillus, culture supernatant (ammonium sulfate precipitate); not shown: 6xHis, C-terminal, kept; 6xHN, C-terminal, kept
B2: toripalimab Fab H.N61A (Fab, V domains shown)
VH: QGQLVQSGAEVKKPGASVKVSCKASGYTFTDYEMHWVRQAPIHGLEWIGVIESETGGTAYAQKFKGRVTITADKSTSTAYMELSSLRSEDTAVYYCAREGITTVATTYYWYFDVWGQGTTVTVSS
VL: DVVMTQSPLSLPVTLGQPASISCRSSQSIVHSNGNTYLEWYLQKPGQSPQLLIYKVSNRFSGVPDRFSGSGSGTDFTLKISRVEAEDVGVYYCFQGSHVPLTFGQGTKLEIK
notes: as for B1
B3: toripalimab Fab H.N61Y (Fab, V domains shown)
VH: QGQLVQSGAEVKKPGASVKVSCKASGYTFTDYEMHWVRQAPIHGLEWIGVIESETGGTAYYQKFKGRVTITADKSTSTAYMELSSLRSEDTAVYYCAREGITTVATTYYWYFDVWGQGTTVTVSS
VL: DVVMTQSPLSLPVTLGQPASISCRSSQSIVHSNGNTYLEWYLQKPGQSPQLLIYKVSNRFSGVPDRFSGSGSGTDFTLKISRVEAEDVGVYYCFQGSHVPLTFGQGTKLEIK
notes: as for B1
B4: toripalimab Fab H.Q62A (Fab, V domains shown)
VH: QGQLVQSGAEVKKPGASVKVSCKASGYTFTDYEMHWVRQAPIHGLEWIGVIESETGGTAYNAKFKGRVTITADKSTSTAYMELSSLRSEDTAVYYCAREGITTVATTYYWYFDVWGQGTTVTVSS
VL: DVVMTQSPLSLPVTLGQPASISCRSSQSIVHSNGNTYLEWYLQKPGQSPQLLIYKVSNRFSGVPDRFSGSGSGTDFTLKISRVEAEDVGVYYCFQGSHVPLTFGQGTKLEIK
notes: as for B1
B5: toripalimab Fab H.Q62Y (Fab, V domains shown)
VH: QGQLVQSGAEVKKPGASVKVSCKASGYTFTDYEMHWVRQAPIHGLEWIGVIESETGGTAYNYKFKGRVTITADKSTSTAYMELSSLRSEDTAVYYCAREGITTVATTYYWYFDVWGQGTTVTVSS
VL: DVVMTQSPLSLPVTLGQPASISCRSSQSIVHSNGNTYLEWYLQKPGQSPQLLIYKVSNRFSGVPDRFSGSGSGTDFTLKISRVEAEDVGVYYCFQGSHVPLTFGQGTKLEIK
notes: as for B1
B6: toripalimab Fab H.K63A (Fab, V domains shown)
VH: QGQLVQSGAEVKKPGASVKVSCKASGYTFTDYEMHWVRQAPIHGLEWIGVIESETGGTAYNQAFKGRVTITADKSTSTAYMELSSLRSEDTAVYYCAREGITTVATTYYWYFDVWGQGTTVTVSS
VL: DVVMTQSPLSLPVTLGQPASISCRSSQSIVHSNGNTYLEWYLQKPGQSPQLLIYKVSNRFSGVPDRFSGSGSGTDFTLKISRVEAEDVGVYYCFQGSHVPLTFGQGTKLEIK
notes: as for B1
B7: toripalimab Fab H.Y32A (Fab, V domains shown)
VH: QGQLVQSGAEVKKPGASVKVSCKASGYTFTDAEMHWVRQAPIHGLEWIGVIESETGGTAYNQKFKGRVTITADKSTSTAYMELSSLRSEDTAVYYCAREGITTVATTYYWYFDVWGQGTTVTVSS
VL: DVVMTQSPLSLPVTLGQPASISCRSSQSIVHSNGNTYLEWYLQKPGQSPQLLIYKVSNRFSGVPDRFSGSGSGTDFTLKISRVEAEDVGVYYCFQGSHVPLTFGQGTKLEIK
notes: as for B1
B8: toripalimab Fab H.K63Y (Fab, V domains shown)
VH: QGQLVQSGAEVKKPGASVKVSCKASGYTFTDYEMHWVRQAPIHGLEWIGVIESETGGTAYNQYFKGRVTITADKSTSTAYMELSSLRSEDTAVYYCAREGITTVATTYYWYFDVWGQGTTVTVSS
VL: DVVMTQSPLSLPVTLGQPASISCRSSQSIVHSNGNTYLEWYLQKPGQSPQLLIYKVSNRFSGVPDRFSGSGSGTDFTLKISRVEAEDVGVYYCFQGSHVPLTFGQGTKLEIK
notes: as for B1

How the values were obtained:
[1] = molecular target: T1, human programmed cell death protein 1 (hPD-1) C93S (aa 24-167) (Homo sapiens, UniProt Q15116, C93S); test: SPR; Carterra LSA; Fab from the ammonium sulfate precipitate of the culture supernatant immobilised on a NiHC200M chip; hPD-1 (1-1024 nM) or mPD-1-Fc (4-1024 nM) as analyte, fourfold dilution series, no regeneration; HBS-EP pH 7.4, 25 °C; medians over the spots of a construct, KD = koff/kon; conditions: one partner purified
T1 construct: made as a fusion with a TEV site and human Fc; the Fc was cut off with TEV protease; source: Expi293F, purified (Protein A, TEV cleavage of Fc, SEC; monomer fractions); not shown: Fc (human), C-terminal, cleaved
T1 sequence (Q15116 24-167 C93S): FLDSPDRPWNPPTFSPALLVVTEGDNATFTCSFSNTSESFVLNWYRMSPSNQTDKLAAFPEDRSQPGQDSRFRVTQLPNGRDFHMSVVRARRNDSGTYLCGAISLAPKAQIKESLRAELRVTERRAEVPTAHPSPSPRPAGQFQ
Summary of the method: (§1)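 Fabs, ammonium sulfate-precipitated from Brevibacillus supernatants and redissolved in HBS-EP, were captured in duplicate on a NiHC200M chip on a Carterra LSA at 25 °C. Fourfold series of human PD-1 (1–1024 nM) or mouse PD-1-Fc (4–1024 nM) were run without regeneration, with association for 10 min and dissociation for 5 min. Rates were fitted with the kdka model, choosing the better of slow- or fast-dissociation settings, and unconfirmed binders were given kon 10^3 […] and koff 10^−2 s^−1. The dissociation constant KD is koff/kon based on per-construct medians.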

[2] = molecular target: T2, mouse programmed cell death protein 1 Fc fusion protein (mPD-1-Fc), mPD-1 C60S (aa 25-167) (Mus musculus, UniProt Q02242, stabilised); test: as above; conditions: one partner purified
T2 construct: not cleaved; source: Expi293F, purified (Protein A, SEC; dimeric fraction); not shown: Fc (human), C-terminal, kept
Summary of the method: as §1

Binder	Kd [1]	koff [1]	kon [1]	Kd [2]	koff [2]	kon [2]
B1	< 0.309 nM	< 1e-05 s⁻¹	32300 M⁻¹ s⁻¹	88.2 nM	0.00422 s⁻¹	47900 M⁻¹ s⁻¹
B2	< 0.355 nM	< 1e-05 s⁻¹	28100 M⁻¹ s⁻¹	32 nM	0.00141 s⁻¹	44100 M⁻¹ s⁻¹
B3	< 0.156 nM	< 1e-05 s⁻¹	64200 M⁻¹ s⁻¹	147 nM	0.00562 s⁻¹	38100 M⁻¹ s⁻¹
B4	< 1.29 nM	< 1e-05 s⁻¹	7730 M⁻¹ s⁻¹	153 nM	0.00564 s⁻¹	37000 M⁻¹ s⁻¹
B5	< 1.29 nM	< 1e-05 s⁻¹	7750 M⁻¹ s⁻¹	186 nM	0.00625 s⁻¹	33600 M⁻¹ s⁻¹
B6	< 0.248 nM	< 1e-05 s⁻¹	40300 M⁻¹ s⁻¹	71.3 nM	0.00524 s⁻¹	73600 M⁻¹ s⁻¹
B7	4.68 nM	7.41e-05 s⁻¹	15800 M⁻¹ s⁻¹	1310 nM	0.0613 s⁻¹	46900 M⁻¹ s⁻¹
B8	< 0.226 nM	< 1e-05 s⁻¹	44300 M⁻¹ s⁻¹	75.7 nM	0.00458 s⁻¹	60400 M⁻¹ s⁻¹
